Laboratory results as given in patent publication US20250092112A1 (HEMOGENYX PHARMACEUTICALS, published 2025).

Target: T1, SARS-CoV-2 Spike protein (wild-type), biotinylated (MyBioSource) (SARS-CoV-2, UniProt P0DTC2 16-1213)
T1 construct: also called WT SARS-CoV-2 Spike; wild-type Spike
Test: binding of spike to ACE2-fragment constructs; assay not described

Binder	binding result
CAR-based construct 1: CD8 signal peptide+ACE2 (19-358)+CD8 hinge+CD8 TM domain+CD3ζ intracellular domain (receptor, domain: CD8 hinge;domain: CD8 TM domain;domain: CD3ζ intracellular domain) not shown	no binding
CAR-based construct 2: CD8 signal peptide+ACE2 (19-605)+CD8 hinge+CD8 TM domain+CD3ζ intracellular domain (receptor, domain: CD8 hinge;domain: CD8 TM domain;domain: CD3ζ intracellular domain) not shown	no binding
